# From patent US20250101111A1 (ARGENX, published 2025)
# Substitutions are numbered along the chain they refer to. In names and notes the source's numbering stands.
# T1: human FcγRIIa on THP-1 cells (human, UniProt P12318 34-317)
# T1 sequence (looked up): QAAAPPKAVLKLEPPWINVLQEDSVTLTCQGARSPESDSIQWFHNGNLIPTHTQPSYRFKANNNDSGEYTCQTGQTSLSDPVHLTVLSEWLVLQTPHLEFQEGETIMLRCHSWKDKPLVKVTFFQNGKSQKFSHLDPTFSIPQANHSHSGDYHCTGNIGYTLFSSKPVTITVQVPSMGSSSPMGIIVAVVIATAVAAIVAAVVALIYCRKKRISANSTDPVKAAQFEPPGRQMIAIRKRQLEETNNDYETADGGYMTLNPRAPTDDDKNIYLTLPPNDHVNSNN
# B1: Fc-ΔG236 (other)
# chain: DKTHTCPPCPAPELLGPSVFLFPPKPKDTLMISRTPEVTCVVVDVSHEDPEVKFNWYVDGVEVHNAKTKPREEQYNSTYRVVSVLTVLHQDWLNGKEYKCKVSNKALPAPIEKTISKAKGQPREPQVYTLPPSRDELTKNQVSLTCLVKGFYPSDIAVEWESNGQPENNYKTTPPVLDSDGSFFLYSKLTVDKSRWQQGNVFSCSVMHEALHNHYTQKSLSLSPGK
# B2: Fc-ΔG236-MST-HN (other)
# chain: B1 chain with M31Y, S33T, T35E, H212K, N213F
# B3: Fc-G236A-MST-HN (other, human, UniProt P01857-1 104-330, looked up)
# chain: DKTHTCPPCPAPELLAGPSVFLFPPKPKDTLYITREPEVTCVVVDVSHEDPEVKFNWYVDGVEVHNAKTKPREEQYNSTYRVVSVLTVLHQDWLNGKEYKCKVSNKALPAPIEKTISKAKGQPREPQVYTLPPSRDELTKNQVSLTCLVKGFYPSDIAVEWESNGQPENNYKTTPPVLDSDGSFFLYSKLTVDKSRWQQGNVFSCSVMHEALKFHYTQKSLSLSPGK
# notes: domain: Fc fragment; EU numbering
# B4: human FcγRIIa-131H (receptor, UniProt P12318 34-218, looked up)
# chain: QAAAPPKAVLKLEPPWINVLQEDSVTLTCQGARSPESDSIQWFHNGNLIPTHTQPSYRFKANNNDSGEYTCQTGQTSLSDPVHLTVLSEWLVLQTPHLEFQEGETIMLRCHSWKDKPLVKVTFFQNGKSQKFSHLDPTFSIPQANHSHSGDYHCTGNIGYTLFSSKPVTITVQVPSMGSSSPMGI
# modifications: C-terminal biotin
# notes: Bought, C-terminally biotinylated; captured on a streptavidin sensor
# B5: human FcγRIIa-131R (receptor, UniProt P12318 34-218, looked up)
# chain: B4 chain with H134R
# modifications: C-terminal biotin
# notes: as for B4
# B6: human FcγRIIb (receptor, UniProt P31994 43-217, looked up)
# chain: TPAAPPKAVLKLEPQWINVLQEDSVTLTCRGTHSPESDSIQWFHNGNLIPTHTQPSYRFKANNNDSGEYTCQTGQTSLSDPVHLTVLSEWLVLQTPHLEFQEGETIVLRCHSWKDKPLVKVTFFQNGKSKKFSRSDPNFSIPQANHSHSGDYHCTGNIGYTLYSSKPVTITVQAP
# modifications: C-terminal biotin
# notes: Bought, C-terminally biotinylated; captured on a streptavidin sensor; also called hFcγRIIb
# B7: Fc-MST-HN (other, human, UniProt P01857-1 104-330, looked up)
# chain: B3 chain with A16G
# notes: domain: Fc fragment; MST-HN = M252Y S254T T256E H433K N434F (EU numbering); also called IgG1-Fc MST-HN
# B8: Fc-IHH (other, human, UniProt P01857-1 104-330, looked up)
# chain: B3 chain with A16G, Y32M, I33A, T34S, E36T, H90A, K213H, F214N, H215A
# notes: domain: Fc fragment; IHH = I253A H310A H435A (EU numbering); also called IgG1-Fc-IHH
# B9: human FcγRIIIb-NA1 (receptor, UniProt O75015 17-200, looked up)
# chain: GMRTEDLPKAVVFLEPQWYRVLEKDSVTLKCQGAYSPEDNSTQWFHNENLISSQASSYFIDAATVDDSGEYRCQTNLSTLSDPVQLEVHVGWLLLQAPRWVFKEEDPIHLRCHSWKNTALHKVTYLQNGKDRKYFHHNSDFHIPKATLKDSGSYFCRGLVGSKNVSSETVNITITQGLAVSTIS
# modifications: C-terminal biotin
# notes: In-house, C-terminally biotinylated; captured on a streptavidin sensor; also called hFcγRIIIb-NA1
# B10: human FcγRIIIb-NA2 (receptor, UniProt O75015 17-200, looked up)
# chain: B9 chain with R20S, N49S, D66N, V90I
# modifications: C-terminal biotin
# notes: In-house, C-terminally biotinylated; captured on a streptavidin sensor; also called hFcγRIIIb-NA2
# Columns and labels:
# soluble human FcRn [1] = molecular target: T2, soluble human FcRn (human, UniProt P55899 24-297; P61769 21-119); assay: SPR (IBIS MX96), Fc fragment immobilised, soluble FcRn titrated, pH 6.0, equilibrium 1:1 fit
# T2 construct: Made in HEK293F cells from two vectors; also called sFcRn; not shown: C-terminal BirA deca-His-tag
# Method: (§1) Regeneration of the sensor surface between the cycles was performed by injection of 10 mM Gly-HCl pH 2.4. Affinity calculations were carried out by performing an equilibrium analysis interpolating to an Rmax of 200 to 600, depending on the assay, and fitting a 1:1 Langmuir binding model, assuming equilibrium to be reached after 360s of IgG-Fc containing analyte injections. Analysis and calculations were performed using Scrubber Software Version 2 (BioLogic Software), Excel (Microsoft) and Graphpad Prism (Prism).
# (§2) Sensorgrams of a representative of three independent affinity measurements were used to determine the binding of the human IgG1-Fc variants to human FcγRs and human FcRn at pH 7.4 and pH 6.0. […] KD values were derived by performing an equilibrium analysis and fitting a 1:1 Langmuir binding model. […] No binding was marked as non-determinable (n.d.). Data are presented in Tables S1-S4 as mean±standard deviation.
# soluble human FcRn [2] = molecular target: T2, soluble human FcRn; assay: SPR (IBIS MX96), Fc fragment immobilised, soluble FcRn titrated, pH 7.4, equilibrium 1:1 fit
# Method: as §1, §2
# [3] = molecular target: T3, human FcRn, endogenous, in THP-1 cells and blood monocytes (human, UniProt P55899 24-365; P61769 21-119); assay: cell-based or functional assay
# [4] = molecular target: T1, human FcγRIIa on THP-1 cells; assay: cell-based or functional assay
# human FcγRIIa-131H = molecular target: B4; assay: SPR, Fc fragments on captured FcγRs, pH 7.4
# Method: as §1, with “The sensor surface was regenerated between the cycles by subsequent injections of 20 mM Tris-HCl, 150 mM NaCl pH 8.8 and 20 mM H₃PO₄ pH 2.4. […] Regeneration” for “Regeneration”
# human FcγRIIa-131R = molecular target: B5; assay: SPR, Fc fragments on captured FcγRs, pH 7.4
# Method: as §1, with “The sensor surface was regenerated between the cycles by subsequent injections of 20 mM Tris-HCl, 150 mM NaCl pH 8.8 and 20 mM H₃PO₄ pH 2.4. […] Regeneration” for “Regeneration”
# human FcγRIa = molecular target: T4, human FcγRIa (human, UniProt P12314 16-288); assay: SPR (IBIS MX96), FcγR captured on sensor, Fc fragment titrated, pH 7.4, equilibrium 1:1 fit
# T4 construct: Bought, C-terminally His-tagged; captured on the sensor by biotinylated anti-His mIgG1; also called hFcγRIa; not shown: C-terminal His tag
# T4 sequence (P12314 16-288 limits assumed): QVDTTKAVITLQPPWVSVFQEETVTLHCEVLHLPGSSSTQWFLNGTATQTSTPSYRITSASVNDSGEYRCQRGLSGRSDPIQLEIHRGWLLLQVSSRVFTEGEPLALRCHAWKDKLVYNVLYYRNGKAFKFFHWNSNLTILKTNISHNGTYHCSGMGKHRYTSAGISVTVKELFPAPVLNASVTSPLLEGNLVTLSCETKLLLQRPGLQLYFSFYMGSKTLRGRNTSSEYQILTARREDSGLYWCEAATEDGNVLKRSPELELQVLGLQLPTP
# Method: as §1, with “The sensor surface was regenerated between the cycles by subsequent injections of 20 mM Tris-HCl, 150 mM NaCl pH 8.8 and 20 mM H₃PO₄ pH 2.4. […] Regeneration” for “Regeneration”
# Fc-G236A = molecular target: T5, Fc-G236A (human, UniProt P01857-1 104-330 = IgG part, G236A); assay: as above
# T5 construct: domain: Fc fragment; Positions in EU numbering; also called IgG1-Fc G236A
# Method: as §1, with “The sensor surface was regenerated between the cycles by subsequent injections of 20 mM Tris-HCl, 150 mM NaCl pH 8.8 and 20 mM H₃PO₄ pH 2.4. […] Regeneration” for “Regeneration”
# Fc-IHH = molecular target: B8; assay: as above
# Method: as §1, with “The sensor surface was regenerated between the cycles by subsequent injections of 20 mM Tris-HCl, 150 mM NaCl pH 8.8 and 20 mM H₃PO₄ pH 2.4. […] Regeneration” for “Regeneration”
# Fc-MST-HN = molecular target: B7; assay: as above
# Method: as §1, with “The sensor surface was regenerated between the cycles by subsequent injections of 20 mM Tris-HCl, 150 mM NaCl pH 8.8 and 20 mM H₃PO₄ pH 2.4. […] Regeneration” for “Regeneration”
# Fc-G236A-MST-HN = molecular target: B3; assay: as above
# Method: as §1, with “The sensor surface was regenerated between the cycles by subsequent injections of 20 mM Tris-HCl, 150 mM NaCl pH 8.8 and 20 mM H₃PO₄ pH 2.4. […] Regeneration” for “Regeneration”
# human FcγRIIIa-158F = molecular target: T6, human FcγRIIIa-158F (human, UniProt P08637 17-208, C-terminal biotin); assay: SPR, Fc fragments on captured FcγRs, pH 7.4
# T6 construct: Bought, C-terminally biotinylated; captured on a streptavidin sensor; also called hFcγRIIIa-158F
# Method: as §1, with “The sensor surface was regenerated between the cycles by subsequent injections of 20 mM Tris-HCl, 150 mM NaCl pH 8.8 and 20 mM H₃PO₄ pH 2.4. […] Regeneration” for “Regeneration”
# human FcγRIIIa-158V = molecular target: T7, human FcγRIIIa-158V (human, UniProt P08637 17-208, C-terminal biotin); assay: SPR, Fc fragments on captured FcγRs, pH 7.4
# T7 construct: Bought, C-terminally biotinylated; captured on a streptavidin sensor; also called hFcγRIIIa-158V
# Method: as §1, with “The sensor surface was regenerated between the cycles by subsequent injections of 20 mM Tris-HCl, 150 mM NaCl pH 8.8 and 20 mM H₃PO₄ pH 2.4. […] Regeneration” for “Regeneration”
# human FcγRIIIb-NA1 = molecular target: B9; assay: SPR, Fc fragments on captured FcγRs, pH 7.4
# Method: as §1, with “The sensor surface was regenerated between the cycles by subsequent injections of 20 mM Tris-HCl, 150 mM NaCl pH 8.8 and 20 mM H₃PO₄ pH 2.4. […] Regeneration” for “Regeneration”
# human FcγRIIIb-NA2 = molecular target: B10; assay: SPR, Fc fragments on captured FcγRs, pH 7.4
# Method: as §1, with “The sensor surface was regenerated between the cycles by subsequent injections of 20 mM Tris-HCl, 150 mM NaCl pH 8.8 and 20 mM H₃PO₄ pH 2.4. […] Regeneration” for “Regeneration”
# [5] = molecular target: T3, human FcRn, endogenous, in THP-1 cells …; assay: intracellular FcRn occupancy assay, flow cytometry: THP-1 FcγRIIa K.O. cells preloaded with IVIg, free FcRn stained with DL650-labeled anti-FcRn Fab
# Method: In short, 1×10⁵ cells were loaded with 5-fold dilution series of IgG variants and fragments thereof for 2 h, ranging from 4 to 500 nM under culture conditions, as specified above. […] 95 μL of this cell solution was then combined with 5 μL of 20× concentrated dilution series of IgG variants and incubated for another 2 h under culture conditions. Thereafter, cells were transferred to 96-well V-bottom plate (Corning) and incubated on ice for 2 min. Cells were subsequently spun down for 3 min at 450×g at 4° C. and the supernatant was discarded. Following the same procedure, cells were washed five times with 150 μL ice-cold medium, followed by one wash with 150 μL 1×PBS supplemented with 1% (v/v) FCS at pH 7.4 and one wash with 150 μL of 1×PBS supplemented with 1% (v/v) FCS at pH 6.0. Cells were then fixed and permeabilized using both solutions of a Fixation/Permeabilization Kit (BD Biosciences) adapted to pH 6.0 after addition of MES (Thermo Fisher Scientific) to a final concentration of 0.5M, otherwise following manufacturer's instructions. […] Cells were washed twice with 150 μL 1×PBS supplemented with 1% (v/v) FCS at pH 6.0, spun down at 450×g at 4° C. for 3 min and the supernatants were discarded. Finally, cells were resuspended in 50 μL of the same buffer, transferred to Micronics tubes (Micronic) on ice and measured in flow cytometry.
# Fc-WT = molecular target: T8, Fc-WT (human, UniProt P01857-1 104-330 = IgG part, limits assumed); assay: SPR (IBIS MX96), FcγR captured on sensor, Fc fragment titrated, pH 7.4, equilibrium 1:1 fit
# T8 construct: domain: Fc fragment; Fc-only fragment made by Evitria; also called IgG1-Fc wild-type; human IgG1-Fc fragment WT
# Method: as §1, with “The sensor surface was regenerated between the cycles by subsequent injections of 20 mM Tris-HCl, 150 mM NaCl pH 8.8 and 20 mM H₃PO₄ pH 2.4. […] Regeneration” for “Regeneration”
Kd (soluble human FcRn [1]) [nM],Kd (soluble human FcRn [2]) [nM],Kd (human FcγRIa) [nM],Kd (Fc-G236A) [nM],Kd (Fc-IHH) [nM],Kd (Fc-MST-HN) [nM],Kd (Fc-G236A-MST-HN) [nM],Binder,further results
130,–,–,–,–,–,–,B1,–
15.4,1420,–,–,–,–,–,B2,–
23.4,1340,10.8,–,–,–,–,B3,"Fold-intensity of intracellular accumulation compared to Fc-WT (Image Stream, THP-1 cells) [3]: 1.87 fold of Fc-WT; Fold-intensity of intracellular accumulation compared to Fc-WT (Image Stream, THP-1 cells) [4]: 1.87 fold of Fc-WT; fold increase in affinity compared to Fc-MST-HN (human FcγRIIa-131H): ~9 fold; fold increase in binding compared to Fc-WT (human FcγRIIa-131H): 2 fold; fold increase in affinity compared to Fc-MST-HN (human FcγRIIa-131R): ~6 fold; fold increase in binding compared to Fc-WT (human FcγRIIa-131R): 2 fold"
–,–,–,91.1,> 2000,1650,189,B4,–
–,–,–,166,> 2000,1640,269,B5,–
–,–,–,> 2000,> 2000,> 2000,> 2000,B6,–
18.9,1410,5.9,–,–,–,–,B7,fold reduction in binding compared to Fc-WT (human FcγRIIa-131H): ≥ 3 fold; fold reduction in binding compared to Fc-WT (human FcγRIIa-131R): ≥ 3 fold; fold reduction in binding compared to Fc-WT (human FcγRIIIa-158F): ≥ 3 fold; fold reduction in binding compared to Fc-WT (human FcγRIIIa-158V): ≥ 3 fold; fold reduction in binding compared to Fc-WT (human FcγRIIIb-NA1): ≥ 3 fold; fold reduction in binding compared to Fc-WT (human FcγRIIIb-NA2): ≥ 3 fold
–,–,6.1,–,–,–,–,B8,fold reduction in binding compared to Fc-WT (human FcγRIIa-131H): ≥ 3 fold; fold reduction in binding compared to Fc-WT (human FcγRIIa-131R): ≥ 3 fold; fold reduction in binding compared to Fc-WT (human FcγRIIIa-158F): ≥ 3 fold; fold reduction in binding compared to Fc-WT (human FcγRIIIa-158V): ≥ 3 fold; fold reduction in binding compared to Fc-WT (human FcγRIIIb-NA1): ≥ 3 fold; fold reduction in binding compared to Fc-WT (human FcγRIIIb-NA2): ≥ 3 fold; binding result [5]: no binding (tested: 500 nM)
–,–,–,> 2000,> 2000,> 2000,> 2000,B9,Kd (Fc-WT): > 2000 nM
–,–,–,> 2000,> 2000,> 2000,> 2000,B10,Kd (Fc-WT): > 2000 nM
